Test results as given in patent US20230203117A1.

Target: IL-10Rβ on human primary monocytes and CD8 T cells (human) (UniProt Q08334)
Test: cell-based or functional assay

Chain of IL-10Rβ on human primary monocytes and CD8 T cells (human) (Q08334 20-325): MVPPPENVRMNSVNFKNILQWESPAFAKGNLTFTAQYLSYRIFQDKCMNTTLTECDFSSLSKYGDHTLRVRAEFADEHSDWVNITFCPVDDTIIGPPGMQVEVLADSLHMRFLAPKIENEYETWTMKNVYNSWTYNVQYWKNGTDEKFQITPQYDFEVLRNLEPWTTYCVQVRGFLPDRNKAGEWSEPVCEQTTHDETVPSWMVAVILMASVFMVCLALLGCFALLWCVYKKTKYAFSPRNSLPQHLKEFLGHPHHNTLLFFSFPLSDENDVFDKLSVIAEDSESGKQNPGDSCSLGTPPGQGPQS
Chain of wild type IL-10 dimer (WTD) (P22301 other isoform, or with tags, fused parts or gaps): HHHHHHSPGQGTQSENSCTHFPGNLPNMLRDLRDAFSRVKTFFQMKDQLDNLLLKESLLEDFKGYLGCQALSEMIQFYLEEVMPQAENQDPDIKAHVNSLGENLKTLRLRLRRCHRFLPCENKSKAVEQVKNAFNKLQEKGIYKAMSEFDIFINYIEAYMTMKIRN

Row | granzyme B production in CD8 T cells, flow cytometry | reduction of HLA-DR surface levels in human primary monocytes | pSTAT1 and pSTAT3 in human CD8 T cells, amplitude of activation (% of the dimeric molecules) | pSTAT1 and pSTAT3 in human monocytes, amplitude of activation (percentage of WTD) | Substance
1 | 2.5 fold | 50% | – | – | wild type IL-10 dimer (WTD) (from UniProt P22301 19-178) (ligand)
2 | – | 20% | < 25 | < 50 | wild type monomeric IL-10 (WTM), recombinant (ligand)
